# What was measured:
# [1] = target: RAGE (receptor for advanced glycation end products), endogenous in MDA-MB-231 cells (human (endogenous in MDA-MB-231)) (UniProt Q15109)
# [2] = target: RAGE (receptor for advanced glycation end products), endogenous in MDA-MB-231 cells (human (endogenous in MDA-MB-231)) (UniProt Q15109); remark: listed apart in the source
# UniProt Q15109, sequence (Q15109 23-404): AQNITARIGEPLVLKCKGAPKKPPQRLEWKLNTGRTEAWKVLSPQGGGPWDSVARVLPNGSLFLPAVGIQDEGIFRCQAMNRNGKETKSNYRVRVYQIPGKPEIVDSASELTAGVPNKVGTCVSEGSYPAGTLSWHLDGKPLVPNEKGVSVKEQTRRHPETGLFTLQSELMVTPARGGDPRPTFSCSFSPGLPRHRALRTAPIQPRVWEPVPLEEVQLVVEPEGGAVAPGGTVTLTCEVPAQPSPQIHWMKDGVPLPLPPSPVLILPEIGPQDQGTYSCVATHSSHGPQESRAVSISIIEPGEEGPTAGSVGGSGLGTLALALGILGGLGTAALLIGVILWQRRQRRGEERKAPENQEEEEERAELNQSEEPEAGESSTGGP
Substance,cell viability of ASA-pretreated MDA-MB-231 cells after removal of Ac-APE1/Ref-1 with an anti-APE1/Ref-1 antibody (2 ug) [1] [%],cytoplasmic histone-associated DNA fragmentation in ASA-pretreated MDA-MB-231 cells after removal of Ac-APE1/Ref-1 with an anti-APE1/Ref-1 antibody (2 ug) (% of the control level) [1],phosphorylation of p38 MAPK at Tyr182 in MDA-MB-231 cells treated with 5 mM ASA (3 h to 24 h) [2] [%]
recombinant human acetylated APE1/Ref-1 (apurinic apyrimidinic endonuclease 1/redox factor-1) (from UniProt P27695 1-318) (natural protein),80,33,–
secreted acetylated APE1/Ref-1 from ASA/TSA-treated MDA-MB-231 cells (from UniProt P27695 1-318) (natural protein),–,–,62

# Source: PMC4695125
